The results in this text go back to patent publication US20170233472A1.

Assay [1] deals with human ROR1 expressed on the surface of cancer cells (human) (UniProt Q01973). The assay is described as follows: FACS on PC-3 cells (ROR1-expressing), isotype control, concentration not given; PE-A, Anti-EK Biotin.
Assay [2] shares this target. The assay is described as follows: FACS on HBL-2 cells (ROR1-expressing), isotype control, concentration not given; PE-A, Anti-EK Biotin.

Sequence of human ROR1 expressed on the surface of cancer cells (human) (Q01973 30-937): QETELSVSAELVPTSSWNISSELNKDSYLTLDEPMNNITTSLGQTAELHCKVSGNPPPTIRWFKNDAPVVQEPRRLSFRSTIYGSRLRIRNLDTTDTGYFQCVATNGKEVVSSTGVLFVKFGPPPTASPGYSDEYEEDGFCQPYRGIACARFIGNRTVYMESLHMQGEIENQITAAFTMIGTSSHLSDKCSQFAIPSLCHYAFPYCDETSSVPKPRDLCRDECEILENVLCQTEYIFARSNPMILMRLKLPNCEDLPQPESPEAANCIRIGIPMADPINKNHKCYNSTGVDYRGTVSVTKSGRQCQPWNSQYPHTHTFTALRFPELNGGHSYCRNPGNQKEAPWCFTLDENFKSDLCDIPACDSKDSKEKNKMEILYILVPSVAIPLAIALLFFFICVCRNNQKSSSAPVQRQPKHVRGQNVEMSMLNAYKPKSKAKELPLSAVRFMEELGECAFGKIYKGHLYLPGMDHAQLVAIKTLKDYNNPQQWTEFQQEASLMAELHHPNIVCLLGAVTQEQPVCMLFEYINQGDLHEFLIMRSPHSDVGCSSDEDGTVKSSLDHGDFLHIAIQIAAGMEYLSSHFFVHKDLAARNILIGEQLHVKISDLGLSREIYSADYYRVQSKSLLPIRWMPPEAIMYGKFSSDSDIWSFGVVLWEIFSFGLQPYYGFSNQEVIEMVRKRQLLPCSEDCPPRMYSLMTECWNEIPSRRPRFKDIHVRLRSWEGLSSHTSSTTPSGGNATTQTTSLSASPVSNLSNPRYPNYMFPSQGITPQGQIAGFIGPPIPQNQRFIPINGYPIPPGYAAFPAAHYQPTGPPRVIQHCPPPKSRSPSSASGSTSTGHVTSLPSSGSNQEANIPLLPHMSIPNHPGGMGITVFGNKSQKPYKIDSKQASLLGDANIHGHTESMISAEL

As for Isotype Control, the Mean: PE-A in assay [1] was determined as 85.2; in assay [2] it was 13.8.
